Measurements reported in patent US20220111022A1 (IMMATICS BIOTECHNOLOGIES, published 2022).

Target: T1, HLA-A*02:01 (human)
T1 construct: MHC monomers first loaded with a UV-sensitive peptide (not identified) that is cleaved and exchanged for the test peptide; captured on streptavidin-coated plates and detected with anti-β2m; also called peptide-receptive MHC molecules; MHC class I
Assay: UV-ligand exchange, anti-b2m ELISA; peptide exchange yield grade
Source text: Candidate peptides for T cell based therapies according to the present invention were further tested for their MHC binding capacity (affinity). The individual peptide-MHC complexes were produced by UV-ligand exchange, where a UV-sensitive peptide is cleaved upon UV-irradiation and exchanged with the peptide of interest as analyzed. Only peptide candidates that can effectively bind and stabilize the peptide-receptive MHC molecules prevent dissociation of the MHC complexes. To determine the yield of the exchange reaction, an ELISA was performed based on the detection of the light chain (β2m) of stabilized MHC complexes. The assay was performed as generally described in Rodenko et al. (Rodenko et al., 2006).
96 well MAXISorp plates (NUNC) were coated over night with 2 μg/ml streptavidin in PBS at room temperature, washed 4× and blocked for 1 h at 37° C. in 2% BSA containing blocking buffer. Refolded HLA-A*02:01/MLA-001 monomers served as standards, covering the range of 15-500 ng/ml. Peptide-MHC monomers of the UV-exchange reaction were diluted 100-fold in blocking buffer. Samples were incubated for 1 h at 37° C., washed four times, incubated with 2 μg/ml HRP conjugated anti-β2m for 1h at 37° C., washed again and detected with TMB solution that is stopped with […]. Absorption was measured at 450 nm. Candidate peptides that show a high exchange yield (preferably higher than 50%, most preferred higher than 75%) are generally preferred for a generation and production of antibodies or fragments thereof, and/or T cell receptors or fragments thereof, as they show sufficient avidity to the MHC molecules and prevent dissociation of the MHC complexes.

Binder	peptide exchange yield
LLDITNPVL	≥ 75%
LLDTTDVYL	50 to 75%
KLHDTSFCL	≥ 75%
FLNVDVSEV	≥ 75%
YLHGFDLSL	≥ 75%
NLADNTILV	≥ 75%
YLWWVNDQSL	≥ 75%
SMASFLKDV	≥ 75%
YLADFSHAT	≥ 75%
AVDKTQTSV	50 to 75%
ALAGLVYDA	≥ 75%
VLKDGTLVI	20 to 50%
VLDGTEVNL	≥ 75%
KLAPDLTEL	50 to 75%
SLFIDVTRV	≥ 75%
SLLRDFTLV	≥ 75%
KLLDGSQRV	50 to 75%
ALMDVSQNV	≥ 75%

Binder	peptide exchange yield
FLNPDGSDCTL	≥ 75%
ALADLTGTV	≥ 75%
ALDSTNSEL	≥ 75%
KLAPEDLADLTAL	≥ 75%
RLQDTTIGL	≥ 75%
KLDASLPAL	≥ 75%
NLLDHSSMFL	≥ 75%
YLGAVFDL	≥ 75%
NMYDLTFHV	≥ 75%
SLLDENDVSSYL	≥ 75%
SLDDSLNEL	50 to 75%
NLLADVSTV	50 to 75%
ALDSSLQLL	≥ 75%
AIDQTITEA	50 to 75%
RLLDETVDVTI	≥ 75%
KMLDETVLV	50 to 75%
YLDGTFRLL	50 to 75%
KILDFTGPLFL	≥ 75%
